Reference: US7575883

B1: recombinant GST-SIRT3 (fragment of human SIRT3 lacking the first 100 amino acids of the N-terminus) (protein)
chain: SISFSVGASSVVGSGGSSDKGKLSLQDVAELIRARACQRVVVMVGAGISTPSGIPDFRSPGSGLYSNLQQYDLPYPEAIFELPFFFHNPKPFFTLAKELYPGNYKPNVTHYFLRLLHDKGLLLRLYTQNIDGLERVSGIPASKLVEAHGTFASATCTVCQRPFPGEDIRADVMADRVPRCPVCTGVVKPDIVFFGEPLPQRFLLHVVDFPMADLLLILGTSLEVEPFASLTEAVRSSVPRLLINRDLVGPLAWHPRSRDVAQLGDVVHGVESLVELLGWTEEMRDLVQRETGKLDGPDK
B2: recombinant GST-SIRT2 (protein)
chain: MAEPDPSHPLETQAGKVQEAQDSDSDSEGGAAGGEADMDFLRNLFSQTLSLGSQKERLLDELTLEGVARYMQSERCRRVICLVGAGISTSAGIPDFRSPSTGLYDNLEKYHLPYPEAIFEISYFKKHPEPFFALAKELYPGQFKPTICHYFMRLLKDKGLLLRCYTQNIDTLERIAGLEQEDLVEAHGTFYTSHCVSASCRHEYPLSWMKEKIFSEVTPKCEDCQSLVKPDIVFFGESLPARFFSCMQSDFLKVDLLLVMGTSLQVQPFASLISKAPLSTPRLLINKEKAGQSDPFLGMIMGLGGGMDFDSKKAYRDVAWLGECDQGCLALAELLGWKKELEDLVRREHASIDAQSGAGVPNPSTSASPKKSPPPAKDEARTTEREKPQ
B3: cell derived SIRT3-GFP (pull down from 293T cell extracts) (protein)
chain: MAFWGWRAAAALRLWGRVVERVEAGGGVGPFQACGCRLVLGGRDDVSAGLRGSHGARGEPLDPARPLQRPPRPEVPRAFRRQPRAAAPSFFFSSIKGGRRSISFSVGASSVVGSGGSSDKGKLSLQDVAELIRARACQRVVVMVGAGISTPSGIPDFRSPGSGLYSNLQQYDLPYPEAIFELPFFFHNPKPFFTLAKELYPGNYKPNVTHYFLRLLHDKGLLLRLYTQNIDGLERVSGIPASKLVEAHGTFASATCTVCQRPFPGEDIRADVMADRVPRCPVCTGVVKPDIVFFGEPLPQRFLLHVVDFPMADLLLILGTSLEVEPFASLTEAVRSSVPRLLINRDLVGPLAWHPRSRDVAQLGDVVHGVESLVELLGWTEEMRDLVQRETGKLDGPDK

Target: chemically acetylated cytochrome c

Protein	deacetylation activity, tritiated acetate release assay in vitro, with and without NAD	deacetylation activity, 14C-nicotinamide release assay in vitro
B1	recombinant GST-SIRT3 deacetylates cytochrome c in a NAD dependent manner	
B2	recombinant GST-SIRT2 deacetylates cytochrome c in a NAD dependent manner	
B3		cell derived SIRT3 deacetylates cytochrome c
